The target of the test is F25Y. Kind of test: binding to CTD phosphopeptide.

This is an account of results in patent US7127357 (dated 2006).

In general, Kd refers to the constant that tells how readily two partners part at equilibrium.

Non-standard residues stand in square brackets, D forms with d. No end group written: not given here. pS = N[C@@H](COP(=O)(O)O)C(=O)O

B1: CTD Repeat Tyr-P.Ser-Pro-Thr-P.Ser-Pro-Ser (peptide)
peptide: Y[pS]PT[pS]PS
modifications: also: tetramethylrhodamine label on an amine, place not given here
In turn, B1 showed a dissociation constant Kd of 12 µM.
